From patent publication US20170275344A1, “POLYPEPTIDES AND USES THEREOF AS A DRUG FOR TREATMENT OF AUTOIMMUNE DISORDERS” (Compugen Ltd., priority 2014, published 2017)

What was measured:
[1] = system: healthy human skin transplanted onto beige-SCID mice; assay: Humanized psoriasis model: healthy human skin xenotransplants on beige-SCID mice injected with psoriatic patients' PBMCs; assay type: in vivo, mouse; settings: IHC, vs PBS treated group
From the text: In this model, psoriasis is induced in xenotransplants of healthy human skin transplanted onto beige severe combined immunodeficiency (SCID) mice followed by intradermal (i.d.) injection of IL-2 enriched Peripheral Blood Mononuclear Cells (PBMCs) isolated from blood of psoriasis patients (Nickoloff, 1995; Wrone-Smith, 1996 Gilhar et al., 2002, 2006, 2011). The activity of these compounds was compared to that of Enbrel, a TNF inhibitor which is an approved biological drug for treatment of psoriasis. As a control for model robustness, we used dexamethasone, a steroid with suppressive effects on inflammatory cytokines and chemokines such as TNF-alpha and interferon-gamma which cause severe psoriasis. All treatments were administered intradermally, except for dexamethasone which was given topically.
Study Protocol: A) Healthy human skin pieces with a width of 0.4 mm and surface area of 1.5×1.5 cm were provided from residual skin of routine plastic surgery procedures from the Plastic Surgery Department of the Rambam Medical Center, Israel. In addition, 20 mL blood samples were taken from psoriatic patients. B) Seventy (70) beige-severe combined immunodeficient mice (SCID) (weight˜20-25 g) were included in this study. Normal healthy human donor skin was transplanted onto the beige-SCID mice as previously described (Nickoloff et al., 1995; Wrone-Smith, 1996; Gilhar et al., 2002, 2006, 2011; Kalish et al., 2009) and the mice were divided into 7 groups. C) Peripheral Blood Mononuclear Cells (PBMCs) isolated from psoriatic patients' blood were cultured in the presence of IL-2 [Prospec, 100 U/mL of RPMI 1640 media, 10% human AB serum (Sigma, St. Louis, Mo.), 1% glutamine, 1% antibiotics (media components; Biological Industries, Kibbutz Beit Haemeck, Israel)] for 14 days, as previously described (Gilhar et al, 2002). D) Four weeks following engraftment, each mouse was injected intra-dermally (i.d.) into the grafted skin lesion, with 1×10^7 activated allogeneic enriched PBMCs from psoriatic patients (FIG. 20). Cells from different psoriasis patients were equally distributed between treatment groups so that each patient is represented in each treatment group. E) On the day of PBMCs injection into the skin grafts, mice were divided randomly into treatment groups (n=9-10 mice per group) and administration of all drugs started (FIG. 20). All tested compounds including the vehicle were given intradermally (intralesional), three times a week, except for dexamethasone which was given topically for 14 consecutive days (Table 3).
F) Twenty eight days after starting the injections and treatment, skin was harvested (FIG. 20). Grafts were analyzed for the following psoriatic parameters by histology: epidermal thickening (acanthosis), suprapapillary epidermal thinning (papillomatosis), hyperkeratosis, parakeratosis, orthokeratosis, agranulosis-hypogranulosis, appearance of neutrophils in the upper spinous layer or in the corneal cell layer—Munro microabscess, regular elongation of rete ridges, angiogenesis, edema and dilated tortuous blood vessels in the dermal papilla and mononuclear cell infiltrate in the papillary dermis. Epidermal thickness was measured as detailed below, and HLA-DR, ICAM-1, Ki-67 and immune infiltrates (anti-CD3 stain) were evaluated by immunohistochemistry (IHC).
The entire skin graft was excised and placed in 10% formal saline overnight. Then, the specimens were place in 70% ethanol and were embedded according to the standard H&E protocol. Histological assessment of the skin grafts was performed by light microscopy and evaluated by two blinded observers [the second observer evaluated random slides (about 25% of all slides) to compare the data obtained by the first observer. […] Epidermal thickness was determined with an ocular micrometer at a minimum of 50 points along the epidermis selected to represent points of maximal and minimal thickness.
Representative grafts were allocated for IHC analysis. […]

NOD mice = assay: Type 1 diabetes incidence in NOD mice (blood glucose monitoring); assay type: in vivo, mouse; settings: for mice that developed T1D: 100 ug/dose
Method: The effect of C1ORF32 ECD-Fc treatment on modulation of disease incidence was tested in NOD mice, which spontaneously develop a T1D disease. In NOD mice, autoreactive CD4+ can be observed within the β-islets as early as 2 weeks of age (Yang et al., Immunity 1996 February; 4(2):189-94), and by 10 weeks of age, when the treatment with C1ORF32 ECD-Fc (SEQ ID NO: 42) began in the present experiments, NOD mice develop peri-insulitis and β-cell loss (Jimeno et al., Immunology and Cell Biology. (2010) 88, 734-745).
Materials: C1ORF ECD-Fc (SEQ ID NO:42) was used in these studies, as described below. Control Ig was mouse IgG2a from BioXcell (Cat# BE0085). NOD mice were purchased from Jackson labs, and blood glucose was measured via sampling a small drop of blood from the tail vein.
Methods: Six week old NOD mice were purchased from Jackson labs. At 10 weeks of age, mice were split into groups and treated with either vehicle (PBS) Control Ig or C1ORF ECD-Fc (SEQ ID NO:42) as detailed below. Treatment was given via IP injections 3×/wk/2 wks. Blood glucose levels were monitored weekly from 8 weeks of age until the mice reached […] of age as detailed below. Mice were considered diabetic upon having two consecutive blood glucose readings of >250 mg/dL. Diabetic mice were sacrificed on the day of the second high glucose level reading. Blood glucose levels were obtained from the tail vein, and the level of blood glucose measured via use of a OneTouch. UltraSmart. Blood Glocuse Monitoring System (OneTouch; Johnson & Johnson; New Brunswick, N.J.) in a blinded manner. This study was carried out 3 times; For study 3 proteins were provided coded.
Treatment groups (n=5 mice/group): 1. Control Ig (mouse IgG2a), 100 ug/dose 2. C1ORF ECD-Fc (SEQ ID NO:42), 100 ug/dose.
Treatment groups (n=14-15): 1. Control Ig (mouse IgG2a; BioXcell) (100 ug/dose) 2. C1ORF ECD-Fc (SEQ ID NO:42) (100 ug/dose)

[2] = combined data from all 3 studies

B1: C1ORF32 ECD-Fc (SEQ ID NO:42): fusion protein of human C1ORF32 ECD fused to mouse immunoglobulin Fc (human-mouse fusion protein) (protein)
chain: LQVTVPDKKKVAMLFQPTVLRCHFSTSSHQPAVVQWKFKSYCQDRMGESLGMSSTRAQSLSKRNLEWDPYLDCLDSRRTVRVVASKQGSTVTLGDFYRGREITIVHDADLQIGKLMWGDSGLYYCIITTPDDLEGKNEDSVELLVLGRTGLLADLLPSFAVEIMGSENLYFQGSGEPRGPTIKPCPPCKCPAPNLLGGPSVFIFPPKIKDVLMISLSPIVTCVVVDVSEDDPDVQISWFVNNVEVHTAQTQTHREDYNSTLRVVSALPIQHQDWMSGKEFKCKVNNKDLPAPIERTISKPKGSVRAPQVYVLPPPEEEMTKKQVTLTCMVTDFMPEDIYVEWTNNGKTELNYKNTEPVLDSDGSYFMYSKLRVEKKNWVERNSYSCSVVHEGLHNHHTTKSFSRTPGK
modifications: Fusion protein human C1ORF32-ECD fused to mouse IgG2a Fc
In the case of B1, the “infiltration of T cells (CD3 positive cells)” value [1] is reported as “significant reduction of CD3 positive cells”, the “mice prevented from developing full blown autoimmune diabetes” value (NOD mice; NOD mice, overall statement) is reported as 77% and the “mice that did not develop T1D” value (NOD mice; Study I, n=5, 100 ug/dose IP 3x/wk for 2 wks from 10 wks of age) is reported as 3 out of 5. For the same molecule, the “mice that developed T1D” value (NOD mice; Study II, n=6) was 1 out of 6, the “mice that developed T1D” value (NOD mice; Study III, n=14-15, by the age of 24 weeks) was 3 out of 15 and the “mice in which T1D was observed” value (NOD mice; [2]) was 6 out of 26. For the same molecule, the “percent of mice in which T1D was observed” value (NOD mice; [2]) was 23%.
